Experimental data from article PMC11358308 (2024).

T1: human B-cell maturation antigen (BCMA), extracellular domain (human, UniProt Q02223 1-54)
T1 chain: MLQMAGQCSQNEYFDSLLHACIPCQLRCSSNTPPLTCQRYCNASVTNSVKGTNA


Tests used:
[1] = biological target: T1, human B-cell maturation antigen (BCMA), …; assay: SPR
[2] = biological target: cynomolgus BCMA (cynomolgus monkey); assay: SPR
Chain of cynomolgus BCMA (cynomolgus monkey) (chain, as listed by the source): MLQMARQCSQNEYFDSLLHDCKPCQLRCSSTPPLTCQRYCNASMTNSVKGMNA

Binder | Kd [1] | Kd [2]
J22.9-FSY, humanized and CDR-optimized IgG (antibody, V domains shown) VH: EVQLVESGGGLVQPGGSLRLSCAASGFTFSRYWFSWVRQAPGKGLVWVGEINPSSSTINYAPSLKDKFTISRDNAKNTLYLQMNSLRAEDTAVYYCASLYYDYGDAYDYWGQGTLVTVSS VL: EIVMTQSPATLSVSPGERATLSCKASQSVESNVAWYQQKPGQAPRALIYSASLRFSGIPARFSGSGSGTEFTLTISSLQSEDFAVYYCQQYNNYPLTFGAGTKLELK | 2.2 nM | 20 nM
J22.9-ISY, humanized and CDR-optimized IgG (antibody, V domains shown) VH: EVQLVESGGGLVQPGGSLRLSCAASGFTFSRYWISWVRQAPGKGLVWVGEINPSSSTINYAPSLKDKFTISRDNAKNTLYLQMNSLRAEDTAVYYCASLYYDYGDAYDYWGQGTLVTVSS VL: EIVMTQSPATLSVSPGERATLSCKASQSVESNVAWYQQKPGQAPRALIYSASLRFSGIPARFSGSGSGTEFTLTISSLQSEDFAVYYCQQYNNYPLTFGAGTKLELK | 2 nM | 17 nM

Next, values leading:

Kd [1] | Kd [2] | Binder
– | 200 nM | J22.9-H, humanized IgG (all humanizing substitutions in VH and VL except A46L in VL) (antibody, V domains shown) VH: EVQLVESGGGLVQPGGSLRLSCAASGFTFSRYWMSWVRQAPGKGLVWVGEINPDSSTINYAPSLKDKFTISRDNAKNTLYLQMNSLRAEDTAVYYCASLYYDYGDAMDYWGQGTLVTVSS VL: EIVMTQSPATLSVSPGERATLSCKASQSVDSNVAWYQQKPGQAPRALIYSASLRFSGIPARFSGSGSGTEFTLTISSLQSEDFAVYYCQQYNNYPLTFGAGTKLELK
– | 2.7 nM | J22.9-xi, chimaeric mouse/human IgG (antibody, V domains shown) VH: QVQLQQSGGGLVQPGGSLKLSCAASGIDFSRYWMSWVRRAPGKGLEWIGEINPDSSTINYAPSLKDKFIISRDNAKNTLYLQMSKVRSEDTALYYCASLYYDYGDAMDYWGQGTSVTVSS VL: DIVMTQSQRFMTTSVGDRVSVTCKASQSVDSNVAWYQQKPRQSPKALIFSASLRFSGVPARFTGSGSGTDFTLTISNLQSEDLAEYFCQQYNNYPLTFGAGTKLELK
